Experimental data taken from patent US20200392251A1 (University of California, published 2020).

Columns and labels:
[1] = molecular target: T1, human MMP-12 catalytic domain wild type (cdMMP-12 wt) (human, UniProt P39900 106-263); experiment: direct ELISA; biotinylated cdMMP on streptavidin plate, Fab titrated, anti-Fab-HRP
T1 construct: biotinylated for ELISA/BLI; also called wt cdMMP-12; cdMMP-12 wide-type
Description: (§1) On streptavidin coated ELISA plates, 5 μg/mL biotinylated cdMMPs were immobilized and incubated with two-fold serially diluted purified Fabs. Bound Fabs were detected with anti-Fab-HRP (Sigma-Aldrich), and signals were developed by TMB substrate (Thermo Scientific) and measured using a microplate reader (BioTek). […] Bound Fabs were detected using anti-Fab-HRP. For bio-layer interferometry (using ForteBio BLItz), biotinylated cdMMP-12 D4/wt was loaded onto streptavidin biosensors. After washing to establish baselines, 50, 100, or 200 nM of Fabs were associated with immobilized cdMMP-12 D4/wt for 200 sec, then dissociated into 50 mM HEPES, 150 mM NaCl pH 7.5 for 120 sec. Averages of measured kₒₙ and koff values were determined for KD calculations.

[2] = molecular target: T2, human MMP-12 catalytic domain mutant D4 (cdMMP-12 D4) (human); experiment: as above
T2 construct: PROSS-designed expression-optimised mutant; Cytoplasmically expressed in E. coli, purified on Ni-NTA; biotinylated for ELISA/BLI; also called cdMMP-12 mutant D4; modified D4
Description: as §1

[3] = molecular target: T1, human MMP-12 catalytic domain wild type …; experiment: bio-layer interferometry (BLItz); biotinylated cdMMP-12 on streptavidin sensor, 50/100/200 nM Fab
Description: as §1

[4] = molecular target: T2, human MMP-12 catalytic domain mutant D4 …; experiment: as above
Description: as §1

[5] = molecular target: T1, human MMP-12 catalytic domain wild type …; experiment: cell-based or functional assay
[6] = molecular target: T2, human MMP-12 catalytic domain mutant D4 …; experiment: cell-based or functional assay
[7] = molecular target: T1, human MMP-12 catalytic domain wild type …; experiment: bio-layer interferometry (ForteBio BLItz), biotinylated cdMMP-12 wt on streptavidin biosensor, Fab at 50, 100 and 200 nM [panel B, LG4]
Description: as §1

[8] = molecular target: T2, human MMP-12 catalytic domain mutant D4 …; experiment: bio-layer interferometry (ForteBio BLItz), biotinylated cdMMP-12 D4 on streptavidin biosensor, Fab at 50, 100 and 200 nM [panel A, LG4]
Description: as §1

[9] = molecular target: T2, human MMP-12 catalytic domain mutant D4 …; experiment: FRET peptide (M-2350) inhibition assay
Description: (§2) To calculate inhibition constants (KIs), data were fit with the equations for slow tight-binding inhibitors. The inhibition type of the Fabs was determined using the initial velocities of cdMMP-12 D4 as a function of substrate concentration (250-2000 nM) at various Fab concentrations (31-500 nM). The values of Vₘₐₓ and Kₘ were derived from linearization in accordance with the Lineweaver-Burk equation.

[10] = molecular target: T3, catalytic domain of human MMP-14 (cdMMP-14) (human, UniProt P50281 114-320); experiment: bio-layer interferometry; reference cdMMP-12 wt
T3 construct: range 114-320; Produced active in E. coli periplasm; biotinylated for BLI/ELISA

[11] = molecular target: T3, catalytic domain of human MMP-14 …; experiment: bio-layer interferometry
[12] = molecular target: human β-secretase 1 (BACE1), extracellular/catalytic domain (human, UniProt P56817 46-457, limits assumed); experiment: cell-based or functional assay
[13] = molecular target: T3, catalytic domain of human MMP-14 …; experiment: FRET peptide inhibition assay
Description: as §2

[14] = molecular target: T1, human MMP-12 catalytic domain wild type …; experiment: bio-layer interferometry (ForteBio BLItz), biotinylated cdMMP-12 wt on streptavidin biosensor, Fab at 50, 100 and 200 nM [panel B, LH11]
Description: as §1

[15] = molecular target: T3, catalytic domain of human MMP-14 …; experiment: FRET peptide inhibition assay; reference cdMMP-12 mutant D4
Description: as §2

[16] = molecular target: T2, human MMP-12 catalytic domain mutant D4 …; experiment: bio-layer interferometry (ForteBio BLItz), biotinylated cdMMP-12 D4 on streptavidin biosensor, Fab at 50, 100 and 200 nM [panel A, LH11]
Description: as §1

[17] = molecular target: T2, human MMP-12 catalytic domain mutant D4 …; experiment: bio-layer interferometry (ForteBio BLItz), biotinylated cdMMP-12 D4 on streptavidin biosensor, Fab at 50, 100 and 200 nM [panel A, LH6]
Description: as §1

[18] = molecular target: T1, human MMP-12 catalytic domain wild type …; experiment: bio-layer interferometry (ForteBio BLItz), biotinylated cdMMP-12 wt on streptavidin biosensor, Fab at 50, 100 and 200 nM [panel B, LH6]
Description: as §1

T1 sequence (P39900 other isoform, or with tags, fused parts or gaps limits assumed): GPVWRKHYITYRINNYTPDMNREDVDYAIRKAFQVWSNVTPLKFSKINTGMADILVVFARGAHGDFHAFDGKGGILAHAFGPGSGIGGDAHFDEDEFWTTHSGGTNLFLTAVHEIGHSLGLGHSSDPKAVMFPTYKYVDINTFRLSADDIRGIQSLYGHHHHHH
T2 sequence (chain, as listed by the source mutant limits assumed): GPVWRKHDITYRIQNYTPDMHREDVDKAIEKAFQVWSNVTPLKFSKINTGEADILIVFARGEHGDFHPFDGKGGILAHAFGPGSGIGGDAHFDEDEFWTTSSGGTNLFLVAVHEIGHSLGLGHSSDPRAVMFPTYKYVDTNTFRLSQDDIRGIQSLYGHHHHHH
human β-secretase 1 (BACE1), extracellular/catalytic domain, sequence (P56817 46-457 limits assumed, form in doubt): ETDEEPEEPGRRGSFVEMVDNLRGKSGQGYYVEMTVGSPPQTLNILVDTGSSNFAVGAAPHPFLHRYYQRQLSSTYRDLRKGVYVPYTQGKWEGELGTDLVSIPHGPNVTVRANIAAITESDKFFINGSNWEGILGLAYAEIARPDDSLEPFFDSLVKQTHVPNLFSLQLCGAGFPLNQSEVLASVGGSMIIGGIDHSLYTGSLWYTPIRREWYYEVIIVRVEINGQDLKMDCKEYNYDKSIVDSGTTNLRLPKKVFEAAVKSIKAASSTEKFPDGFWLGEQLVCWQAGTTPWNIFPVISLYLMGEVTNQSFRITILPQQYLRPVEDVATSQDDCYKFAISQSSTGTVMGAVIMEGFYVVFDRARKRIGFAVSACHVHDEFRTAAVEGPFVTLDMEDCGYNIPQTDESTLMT

EC50 [1]	EC50 [2]	Kd [3]	Kd [4]	Inhibition, Elastin-FITC IC50 [5]	Inhibition, Elastin-FITC IC50 [6]	Ki [9]	fold (KD compared with cdMMP-12 wt) [10]	Kd [11]	Ki [13]	fold (KI compared with cdMMP-12 mutant D4) [15]	Binder	further results
180 nM	97 nM	71 nM	37 nM	350 nM	210 nM	76 nM	9 fold	640 nM			anti-MMP-12 Fab LG4 (Fab, V domains shown, Fab from a synthetic human Fab library with long CDR-H3s, produced in E. coli periplasm; also called Clone LG4) VH: EVQLVESGGGLVQPGGSLRLSCAASGFNLYYSYMHWVRQAPGKGLEWVASISSYYGYTSYADSVKGRFTISADTSKNTAYLQMNSLRAEDTAVYYCARSPIVYYELFMFIDMGAQGWKYGMDYWGQGTLVTVSS VL: DIQMTQSPSSLSASVGDRVTITCRASQSVSSAVAWYQQKPGKAPKLLIYSASSLYSGVPSRFSGSRSGTDFTLTISSLQPEDFATYYCQQTFYPFTFGQGTKVEIKR	koff [7]: 0.0038 s⁻¹; kon [7]: 54000 M⁻¹ s⁻¹; koff [8]: 0.0041 s⁻¹; kon [8]: 110000 M⁻¹ s⁻¹
											anti-BACE1 IgG B2B2 (antibody, V domains shown) VH: EVQLVESGGGLVQPGGSLRLSCAASGFNISSYYMHWVRQAPGKGLEWVASIYSSYGYTYYADSVKGRFTISADTSKNTAYLQMNSLRAEDTAVYYCARYWGYYAWFGSHPWAYGAFDYWGQGTLVTVSS VL: DIQMTQSPSSLSASVGDRVTITCRASQSVSSAVAWYQQKPGKAPKLLIYSASSLYSGVPSRFSGSRSGTDFTLTISSLQPEDFATYYCQQYGYYLITFGQGTKVEIKR	apparent IC50 of Aβ40 production, HEK293 cells expressing APP [12]: 330 nM
140 nM	100 nM	75 nM	38 nM	23 nM	18 nM	75 nM	10 fold	780 nM	9.6 µM	130 fold	anti-MMP-12 Fab LH11 (Fab, V domains shown, Fab from a synthetic human Fab library with long CDR-H3s, produced in E. coli periplasm; also called Clone LH11) VH: EVQLVESGGGLVQPGGSLRLSCAASGFNLSYYSMHWVRQAPGKGLEWVAYIYPYYGSTYYADSVKGRFTISADTSKNTAYLQMNSLRAEDTAVYYCARFLLSIGKLFVGDGSILHVWL VL: DIQMTQSPSSLSASVGDRVTITCRASQSVSSAVAWYQQKPGKAPKLLIYSASSLYSGVPSRFSGSRSGTDFTLTISSLQPEDFATYYCQQAYYGYLFTFGQGTKVEIKR	Inhibition, Fibronectin IC50 [5]: 510 nM; koff [14]: 0.0032 s⁻¹; kon [14]: 43000 M⁻¹ s⁻¹; koff [16]: 0.0035 s⁻¹; kon [16]: 92000 M⁻¹ s⁻¹
~1000 nM	290 nM	430 nM	510 nM	1700 nM	61 nM	91 nM	1.1 fold	480 nM	4.7 µM	52 fold	anti-MMP-12 Fab LH6 (Fab, V domains shown, Fab from a synthetic human Fab library with long CDR-H3s, produced in E. coli periplasm; also called Clone LH6) VH: EVQLVESGGGLVQPGGSLRLSCAASGFNLSYSYMHWVRQAPGKGLEWVASIYPSYGSTYYADSVKGRFTISADTSKNTAYLQMNSLRAEDTAVYYCARDLEESLPKRARTAVSKELESVPYVMDYWGQGTLVTVSS VL: DIQMTQSPSSLSASVGDRVTITCRASQSVSSAVAWYQQKPGKAPKLLIYSASSLYSGVPSRFSGSRSGTDFTLTISSLQPEDFATYYCQQSSHYASPPITFGQGTKVEIKR	koff [17]: 0.011 s⁻¹; kon [17]: 22000 M⁻¹ s⁻¹; koff [18]: 0.0065 s⁻¹; kon [18]: 15000 M⁻¹ s⁻¹
